Here are results for two molecules from publication PMC4019675 (Nature cell biology, 2013).

The chains are these.
T1: FtsA (wild-type, untagged) (E. coli (PCR amplified from MG1655 …, UniProt P0ABH0 1-420))
T1 sequence (looked up): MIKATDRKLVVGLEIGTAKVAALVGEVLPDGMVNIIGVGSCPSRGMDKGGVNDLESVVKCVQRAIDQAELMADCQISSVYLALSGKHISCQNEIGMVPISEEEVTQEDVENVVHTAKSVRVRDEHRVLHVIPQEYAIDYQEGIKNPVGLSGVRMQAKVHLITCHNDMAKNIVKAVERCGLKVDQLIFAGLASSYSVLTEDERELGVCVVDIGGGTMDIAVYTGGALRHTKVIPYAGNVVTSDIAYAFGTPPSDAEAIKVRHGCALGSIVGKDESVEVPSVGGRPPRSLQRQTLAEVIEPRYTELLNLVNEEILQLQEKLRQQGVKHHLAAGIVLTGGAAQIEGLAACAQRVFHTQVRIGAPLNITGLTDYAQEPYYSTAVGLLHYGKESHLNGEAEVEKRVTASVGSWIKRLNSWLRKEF

B1: FtsZ (untagged) (natural protein, UniProt P0A9A6 1-383, looked up)
chain: MFEPMELTNDAVIKVIGVGGGGGNAVEHMVRERIEGVEFFAVNTDAQALRKTAVGQTIQIGSGITKGLGAGANPEVGRNAADEDRDALRAALEGADMVFIAAGMGGGTGTGAAPVVAEVAKDLGILTVAVVTKPFNFEGKKRMAFAEQGITELSKHVDSLITIPNDKLLKVLGRGISLLDAFGAANDVLKGAVQGIAELITRPGLMNVDFADVRTVMSEMGYAMMGSGVASGEDRAEEAAEMAISSPLLEDIDLSGARGVLVNITAGFDLRLDEFETVGNTIRAFASDNATVVIGTSLDPDMNDELRVTVVATGIGMDKRPEITLVTNKQVQQPVMDRYQQHGMAPLTQEQKPVAKVVNDNAPQTAKEPDYLDIPAFLRKQAD
B2: His-Δ22-ZipA (domain or fragment)
chain: not shown

The target of assay [1] is T1, FtsA (wild-type, untagged). Briefly: co-sedimentation.
Assay [2] concerns the target B1. As to the kind of experiment: co-sedimentation.

Consider B1, for which the binding result in assay [1] was “binds”.

Take B2: the binding result in assay [2] is listed as “binds”.
